Source: the supplement of paper PMC9233669
This sample holds only a part of the variants without activity.

Legend:
biotinyl-Phe-oxazolone = test: self-aminoacylation, catalytic enhancement (BFO) (fold over background); higher = more active; k-Seq, kA / k0A0; sequences stand for … in GGGAAUGGAUCCACAUCUACGAAUUC…UUCACUGCAGACUUGACGAAGCUG
In short: (§1)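 Each biotinyl-aminoacyl-oxazolone, at 2–1250 μM, was incubated with mutagenized RNA pools (0.43 μM) carrying a 21-nt variable region. The 50 μL reactions contained HEPES/NaCl/KCl/MgCl2/CaCl2 buffer with 5% acetonitrile at pH 6.9–7.0 and ran for 90 minutes at room temperature. After streptavidin capture, RNA was measured by qPCR in triplicate and by Illumina sequencing, and catalytic enhancement was calculated as median kA over the uncatalyzed rate from a pseudo-first-order fit of per-sequence fraction reacted.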

biotinyl-Val-oxazolone = test: self-aminoacylation, catalytic enhancement (BVO) (fold over background); higher = more active; k-Seq, kA / k0A0; sequences stand for … in GGGAAUGGAUCCACAUCUACGAAUUC…UUCACUGCAGACUUGACGAAGCUG
In short: as §1

biotinyl-Ile-oxazolone = test: self-aminoacylation, catalytic enhancement (BIO) (fold over background); higher = more active; k-Seq, kA / k0A0; sequences stand for … in GGGAAUGGAUCCACAUCUACGAAUUC…UUCACUGCAGACUUGACGAAGCUG
In short: as §1

biotinyl-Trp-oxazolone = test: self-aminoacylation, catalytic enhancement (BWO) (fold over background); higher = more active; k-Seq, kA / k0A0; sequences stand for … in GGGAAUGGAUCCACAUCUACGAAUUC…UUCACUGCAGACUUGACGAAGCUG
In short: as §1

biotinyl-Leu-oxazolone = test: self-aminoacylation, catalytic enhancement (BLO) (fold over background); higher = more active; k-Seq, kA / k0A0; sequences stand for … in GGGAAUGGAUCCACAUCUACGAAUUC…UUCACUGCAGACUUGACGAAGCUG
In short: as §1

biotinyl-Met-oxazolone = test: self-aminoacylation, catalytic enhancement (BMO) (fold over background); higher = more active; k-Seq, kA / k0A0; sequences stand for … in GGGAAUGGAUCCACAUCUACGAAUUC…UUCACUGCAGACUUGACGAAGCUG
In short: as §1

## AAGAUAGCUAAUAGUCGCAAG [Fam3.1 aminoacylation ribozyme variant]
biotinyl-Phe-oxazolone
  self-aminoacylation: 2.4
biotinyl-Val-oxazolone
  self-aminoacylation: 1.34
biotinyl-Ile-oxazolone
  self-aminoacylation: 1.63
biotinyl-Trp-oxazolone
  self-aminoacylation: 1.34
biotinyl-Leu-oxazolone
  self-aminoacylation: 1.82
biotinyl-Met-oxazolone
  self-aminoacylation: 1.57

## AAGAUUGCAAAUAGUCGCAAG [Fam3.1 aminoacylation ribozyme variant]
biotinyl-Phe-oxazolone
  self-aminoacylation: 1.38
biotinyl-Val-oxazolone
  self-aminoacylation: 1.29
biotinyl-Ile-oxazolone
  self-aminoacylation: 1.43
biotinyl-Trp-oxazolone
  self-aminoacylation: 2.48
biotinyl-Leu-oxazolone
  self-aminoacylation: 1.58
biotinyl-Met-oxazolone
  self-aminoacylation: 1.27

## AAGAUUGCCAAUAGUCGCAAG [Fam3.1 aminoacylation ribozyme variant]
biotinyl-Phe-oxazolone
  self-aminoacylation: 1.69
biotinyl-Val-oxazolone
  self-aminoacylation: 1.81
biotinyl-Ile-oxazolone
  self-aminoacylation: 1.51
biotinyl-Trp-oxazolone
  self-aminoacylation: 1.88
biotinyl-Leu-oxazolone
  self-aminoacylation: 1.63
biotinyl-Met-oxazolone
  self-aminoacylation: 1.8

## AAGAUUGCUAAAAGUCGCAAG [Fam3.1 aminoacylation ribozyme variant]
biotinyl-Phe-oxazolone
  self-aminoacylation: 3.21
biotinyl-Val-oxazolone
  self-aminoacylation: 1.61
biotinyl-Ile-oxazolone
  self-aminoacylation: 1.66
biotinyl-Trp-oxazolone
  self-aminoacylation: 1.56
biotinyl-Leu-oxazolone
  self-aminoacylation: 1.76
biotinyl-Met-oxazolone
  self-aminoacylation: 1.87

## AAGAUUGCUAAUAGUCGAAAG [Fam3.1 aminoacylation ribozyme variant]
biotinyl-Phe-oxazolone
  self-aminoacylation: 2.96
biotinyl-Val-oxazolone
  self-aminoacylation: 0.945
biotinyl-Ile-oxazolone
  self-aminoacylation: 1.28
biotinyl-Trp-oxazolone
  self-aminoacylation: 1.34
biotinyl-Leu-oxazolone
  self-aminoacylation: 0.966
biotinyl-Met-oxazolone
  self-aminoacylation: 1.03

## AAGAUUGCUAAUAGUCGCAAG [Fam3.1 aminoacylation ribozyme variant]
biotinyl-Phe-oxazolone
  self-aminoacylation: 4.83
biotinyl-Val-oxazolone
  self-aminoacylation: 1.31
biotinyl-Ile-oxazolone
  self-aminoacylation: 1.53
biotinyl-Trp-oxazolone
  self-aminoacylation: 2.15
biotinyl-Leu-oxazolone
  self-aminoacylation: 1.33
biotinyl-Met-oxazolone
  self-aminoacylation: 1.32

## AAGAUUGCUAAUAGUCGCAUG [Fam3.1 aminoacylation ribozyme variant]
biotinyl-Phe-oxazolone
  self-aminoacylation: 1.36
biotinyl-Val-oxazolone
  self-aminoacylation: 1.39
biotinyl-Ile-oxazolone
  self-aminoacylation: 1.68
biotinyl-Trp-oxazolone
  self-aminoacylation: 1.46
biotinyl-Leu-oxazolone
  self-aminoacylation: 1.91
biotinyl-Met-oxazolone
  self-aminoacylation: 1.45

## AAGAUUGCUAAUAGUCGGAAG [Fam3.1 aminoacylation ribozyme variant]
biotinyl-Phe-oxazolone
  self-aminoacylation: 1.84
biotinyl-Val-oxazolone
  self-aminoacylation: 1.22
biotinyl-Ile-oxazolone
  self-aminoacylation: 1.4
biotinyl-Trp-oxazolone
  self-aminoacylation: 1.54
biotinyl-Leu-oxazolone
  self-aminoacylation: 0.837
biotinyl-Met-oxazolone
  self-aminoacylation: 0.909

## AAGCUAGCUAAUAGUCGCAAG [Fam3.1 aminoacylation ribozyme variant]
biotinyl-Phe-oxazolone
  self-aminoacylation: 4.5
biotinyl-Val-oxazolone
  self-aminoacylation: 1.62
biotinyl-Ile-oxazolone
  self-aminoacylation: 2.2
biotinyl-Trp-oxazolone
  self-aminoacylation: 2.47
biotinyl-Leu-oxazolone
  self-aminoacylation: 2.26
biotinyl-Met-oxazolone
  self-aminoacylation: 1.36

## AAGCUCGCUAAUAGUCGCAAG [Fam3.1 aminoacylation ribozyme variant]
biotinyl-Phe-oxazolone
  self-aminoacylation: 3.66
biotinyl-Val-oxazolone
  self-aminoacylation: 1.95
biotinyl-Ile-oxazolone
  self-aminoacylation: 2.09
biotinyl-Trp-oxazolone
  self-aminoacylation: 2.2
biotinyl-Leu-oxazolone
  self-aminoacylation: 2.49
biotinyl-Met-oxazolone
  self-aminoacylation: 1.75

## AAGCUUGCUAAUAGUCGAAAG [Fam3.1 aminoacylation ribozyme variant]
biotinyl-Phe-oxazolone
  self-aminoacylation: 3.53
biotinyl-Val-oxazolone
  self-aminoacylation: 1.35
biotinyl-Ile-oxazolone
  self-aminoacylation: 1.58
biotinyl-Trp-oxazolone
  self-aminoacylation: 1.88
biotinyl-Leu-oxazolone
  self-aminoacylation: 1.16
biotinyl-Met-oxazolone
  self-aminoacylation: 1.73

## AAGCUUGCUAAUAGUCGCAAC [Fam3.1 aminoacylation ribozyme variant]
biotinyl-Phe-oxazolone
  self-aminoacylation: 2.11
biotinyl-Val-oxazolone
  self-aminoacylation: 1.24
biotinyl-Ile-oxazolone
  self-aminoacylation: 1.86
biotinyl-Trp-oxazolone
  self-aminoacylation: 1.32
biotinyl-Leu-oxazolone
  self-aminoacylation: 1.44
biotinyl-Met-oxazolone
  self-aminoacylation: 1.28

## AAGCUUGCUAAUAGUCGCAAG [Fam3.1 aminoacylation ribozyme variant]
biotinyl-Phe-oxazolone
  self-aminoacylation: 3.96
biotinyl-Val-oxazolone
  self-aminoacylation: 1.59
biotinyl-Ile-oxazolone
  self-aminoacylation: 1.85
biotinyl-Trp-oxazolone
  self-aminoacylation: 2.02
biotinyl-Leu-oxazolone
  self-aminoacylation: 1.67
biotinyl-Met-oxazolone
  self-aminoacylation: 1.69

## AAGUUCGCCAAUAGUCGCAAG [Fam3.1 aminoacylation ribozyme variant]
biotinyl-Phe-oxazolone
  self-aminoacylation: 2.83
biotinyl-Ile-oxazolone
  self-aminoacylation: 2.29
biotinyl-Trp-oxazolone
  self-aminoacylation: 2.98
biotinyl-Leu-oxazolone
  self-aminoacylation: 2.67
biotinyl-Met-oxazolone
  self-aminoacylation: 2.18

## ACGUUUGCUAAUAGUCGCGAG [Fam3.1 aminoacylation ribozyme variant]
biotinyl-Phe-oxazolone
  self-aminoacylation: 10.4
biotinyl-Val-oxazolone
  self-aminoacylation: 2.12
biotinyl-Ile-oxazolone
  self-aminoacylation: 2.65
biotinyl-Leu-oxazolone
  self-aminoacylation: 2.48

## ACUACCCUGGUCAUCGAGGGA [Fam2.1 aminoacylation ribozyme variant]
biotinyl-Phe-oxazolone
  self-aminoacylation: 2.42
biotinyl-Ile-oxazolone
  self-aminoacylation: 2.12
biotinyl-Trp-oxazolone
  self-aminoacylation: 3.04
biotinyl-Leu-oxazolone
  self-aminoacylation: 3.13
biotinyl-Met-oxazolone
  self-aminoacylation: 3.62

## AUCACCCUGGUCAUCGAGCGA [Fam2.1 aminoacylation ribozyme variant]
biotinyl-Val-oxazolone
  self-aminoacylation: 2.53
biotinyl-Ile-oxazolone
  self-aminoacylation: 2.01
biotinyl-Trp-oxazolone
  self-aminoacylation: 2.62
biotinyl-Leu-oxazolone
  self-aminoacylation: 3.35
biotinyl-Met-oxazolone
  self-aminoacylation: 2.16

## AUUACCCUGGUCAUCGAGCCA [Fam2.1 aminoacylation ribozyme variant]
biotinyl-Phe-oxazolone
  self-aminoacylation: 2.92
biotinyl-Ile-oxazolone
  self-aminoacylation: 2.01
biotinyl-Trp-oxazolone
  self-aminoacylation: 3.35
biotinyl-Leu-oxazolone
  self-aminoacylation: 2.23
biotinyl-Met-oxazolone
  self-aminoacylation: 2.36

## AUUCACCGAGGUCAUCGGGUC [Fam2.2 aminoacylation ribozyme variant]
biotinyl-Phe-oxazolone
  self-aminoacylation: 7.57
biotinyl-Val-oxazolone
  self-aminoacylation: 2.71
biotinyl-Ile-oxazolone
  self-aminoacylation: 2.18
biotinyl-Leu-oxazolone
  self-aminoacylation: 2.52

## AUUCACCUAAGUCAUCGGGUA [Fam2.2 aminoacylation ribozyme variant]
biotinyl-Val-oxazolone
  self-aminoacylation: 2.62
biotinyl-Ile-oxazolone
  self-aminoacylation: 2.81
biotinyl-Trp-oxazolone
  self-aminoacylation: 2.8
biotinyl-Leu-oxazolone
  self-aminoacylation: 3
biotinyl-Met-oxazolone
  self-aminoacylation: 2.44

## AUUCACCUAGGGCAUCGGGGG [Fam2.2 aminoacylation ribozyme variant]
biotinyl-Phe-oxazolone
  self-aminoacylation: 7.22
biotinyl-Val-oxazolone
  self-aminoacylation: 2.93
biotinyl-Ile-oxazolone
  self-aminoacylation: 2.98
biotinyl-Leu-oxazolone
  self-aminoacylation: 3.63
biotinyl-Met-oxazolone
  self-aminoacylation: 2.65

## AUUCACGUAGGUCAUCGGGCG [Fam2.2 aminoacylation ribozyme variant]
biotinyl-Phe-oxazolone
  self-aminoacylation: 5.97
biotinyl-Val-oxazolone
  self-aminoacylation: 2.56
biotinyl-Ile-oxazolone
  self-aminoacylation: 2.07
biotinyl-Leu-oxazolone
  self-aminoacylation: 2.57
biotinyl-Met-oxazolone
  self-aminoacylation: 2.41

## AUUCACUUAGUUCAUCGGGUG [Fam2.2 aminoacylation ribozyme variant]
biotinyl-Phe-oxazolone
  self-aminoacylation: 11.1
biotinyl-Ile-oxazolone
  self-aminoacylation: 2.18
biotinyl-Trp-oxazolone
  self-aminoacylation: 3.28
biotinyl-Leu-oxazolone
  self-aminoacylation: 2.93
biotinyl-Met-oxazolone
  self-aminoacylation: 2.58

## CCACACUUCACGCAAUCGGCC [Fam1B.1 aminoacylation ribozyme variant]
biotinyl-Phe-oxazolone
  self-aminoacylation: 13.9
biotinyl-Val-oxazolone
  self-aminoacylation: 3.47
biotinyl-Ile-oxazolone
  self-aminoacylation: 2.2
biotinyl-Trp-oxazolone
  self-aminoacylation: 4.2
biotinyl-Met-oxazolone
  self-aminoacylation: 2.28

## CCACACUUCGCGCAAUCGGUC [Fam1B.1 aminoacylation ribozyme variant]
biotinyl-Phe-oxazolone
  self-aminoacylation: 10.5
biotinyl-Val-oxazolone
  self-aminoacylation: 2.51
biotinyl-Ile-oxazolone
  self-aminoacylation: 2.21
biotinyl-Trp-oxazolone
  self-aminoacylation: 2.77
biotinyl-Leu-oxazolone
  self-aminoacylation: 2.41

## CGACACUUCAAGCAAUCGGUG [Fam1B.1 aminoacylation ribozyme variant]
biotinyl-Val-oxazolone
  self-aminoacylation: 2.27
biotinyl-Ile-oxazolone
  self-aminoacylation: 2.4
biotinyl-Leu-oxazolone
  self-aminoacylation: 2.22
biotinyl-Met-oxazolone
  self-aminoacylation: 2.37

## CUACUUCAAACAUUCGGGCUG [Fam1A.1 aminoacylation ribozyme variant]
biotinyl-Val-oxazolone
  self-aminoacylation: 2.14
biotinyl-Ile-oxazolone
  self-aminoacylation: 2.24
biotinyl-Met-oxazolone
  self-aminoacylation: 2.06

## UUUCACCUAGGUAAUCGGGUG [Fam2.2 aminoacylation ribozyme variant]
biotinyl-Phe-oxazolone
  self-aminoacylation: 13.1
biotinyl-Ile-oxazolone
  self-aminoacylation: 2.1
biotinyl-Trp-oxazolone
  self-aminoacylation: 3.75
biotinyl-Leu-oxazolone
  self-aminoacylation: 2.27
biotinyl-Met-oxazolone
  self-aminoacylation: 2.66
